{"source": "patent US20030134774A1", "about": "“Methods for inhibiting cardiac disorders” (priority 2001, published 2003)", "molecules": {"B1": {"name": "rPMT: recombinant Pasteurella multocida toxin, a Gαq agonist used as pharmacological probe (protein, UniProt P17452 1-1285, looked up)", "Dermonecrotic toxin": "MKTKHFFNSDFTVKGKSADEIFRRLCTDHPDKQLNNVKWKEVFINRFGQMMLDTPNPRKIVEKIINEGLEKQGLKNIDPETTYFNIFSSSDSSDGNVFHYNSLSESYRVTDACLMNIFVERYFDDWDLLNSLASNGIYSVGKEGAYYPDHDYGPEYNPVWGPNEQIYHSRVIADILYARSVWDEFKKYFMEYWQKYAQLYTEMLSDTFLAMAIQQYTRQTLTDEGFLMVCNTYYGNKEEVQITLLDIYGYPSTDIICIEQKGLPTPKVILYIPGGTQPFVEFLNTDDLKQWIAWHLKDNKHMVAFRKHFSLKQRQEGETFTGIDKALQYIAEESPEWPANKYILYNPTHLETENLFNIMMKRTEQRMLEDSDVQIRSNSEATRDYALSLLETFISQLSAIDMLVPAVGIPINFALSATALGLSSDIVVNGDSYEKRKYGIGSLVQSALFTGINLIPVISETAEILSSFSRTEEDIPAFFTEEQALAQRFEIVEEELHSISPDDPPREITDENLHKIRLVRLNNENQPLVVLRRLGGNKFIRIEPITFQEIKGSLVSEVINPVTNKTYYVSNAKLLGGSPYSPFRIGLEGVWTPEVLKARASVIGKPIGESYKRILAKLQRIHNSNILDERQGLMHELMELIDLYEESQPSSERLNAFRELRTQLEKALYLPEMEALKKQILQIPNKGSGAARFLLRTAMNEMAGKTSESTADLIRFALQDTVISAPFRGYAGAIPEAIDFPVKYVIEDISVFDKIQTNYWELPAYESWNEGSNSALLPGLLRESQSKGMLSKCRIIENSLYIGHSYEEMFYSISPYSNQVGGPYELYPFTFFSMLQEVQGDLGFEQAFATRNFFNTLVSDRLSLMENTMLLTESFDYTPWDAIYGDINYDEQFAAMSINERIEKCMNTYRGVAFQNSSKSIDFFLNNLTTFIDNGLTEIAISDLPYDIVQQEISQFLQGSNEWKTLDAMLFNLDKGDINGAFRKLLQSAKDNNIKFRAIGHSDNSVPPFNNPYKSLYYKGNIIAEAIEKLDREGQKFVVFADSSLLNSTPGTGRPMPGLVQYLKIPATVVDSDGAWQFLPDVASSRVPIEVTELENWQVLTPPQGKILGLKQFKLTAGFPTEQSRLPLLENSVSEDLREELMQKIDAIKNDVKMNSLVCMEAGSCDSVSPKVAARLKDMGLEAGMGASITWWRREGGMEFSHQMHTTASFKFAGKEFAVDASHLQFVHDQLDTTILILPVDDWALEIAQRNRAINPFVEYVSKTGNMLALFMPPLFTKPRLTRAL"}}, "format_in_all_cases": "cell-based, rat", "key": {"PLC": {"tested_on": "PLC", "test": "Inositol phosphate production (PLC activation) in cardiomyocyte cultures", "experimental": "rPMT activates PLC. Cardiomyocyte cultures were incubated in media containing 3 μCi/ml [^3H] myoinositol for 96 hr, with 400 ng/ml rPMT for the indicated intervals at the end of this interval (Panel A) or the indicated concentration of rPMT included in the culture medium during the final 24 hr of culture (Panel B). This was followed by 30 min in the presence of 10 mM LiCl to inhibit the hydrolysis of inositol phosphate metabolites. Results are expressed as cpm over basal (mean±SEM; n=3) from a single experiment, and are representative of results obtained in 3 separate culture preparations.\nCardiomyocytes grown in six-well plates were labeled with 3 μCi/ml [^3H]myoinositol for 96 hr. Treatment with rPMT was during the final 24 hr of this interval. Cells were washed to remove unincorporated radioisotope and then incubated for an additional 20 min with HEPES-buffered saline containing 10 mM LiCl. Cells were lysed with 1.05 mls of chloroform/methanol/6M HCl (500:1000:3) and harvested, and lipids were extracted for 30 min at room temperature. 1.05 mls of chloroform/water (1:2) were added, and the mixture was vortexed and centrifuged at 2000 g for 5 min to separate the phases. The aqueous phase was transferred to Dowex anion-exchange columns, and inositol phosphates were eluted sequentially according to standard methods as described previously (13)."}, "PKC isoforms": {"tested_on": "PKC isoforms", "test": "Immunoblot of PKC isoform partitioning and down-regulation in cardiomyocytes", "details": "400 ng/ml, early time points 30 min-2 hr", "experimental": "rPMT selectively activates nPKC isoforms. […] Soluble extracts were prepared and separated by SDS-PAGE followed by immunodetection of total PKC isoform abundance with antibodies that are specific for the individual PKC isoforms (Panel A), or phosphorylated forms of PKC (largely PKCε) with a pan-phospho-PKC antibody (Panels B and C), as described in Methods below. GF109203 was included at 5 μM 30 min prior to stimulation as indicated.\n(§1) Cells were maintained in culture in the presence of 10% FCS for 96 hr and then switched to serum-free medium for 24 hr prior to the addition of agonists as indicated. For PKC, extracts were prepared and subjected to SDS-PAGE to resolve individual isoforms according to methods described previously (14).\n(§2) Specific immunoreactivity for individual PKC isoforms was quantified according to methods described previously. […] Bands were detected by enhanced chemiluminescence and blots were quantified by laser scanning densitometry."}, "PKCδ and PKCε": {"tested_on": "PKCδ and PKCε", "test": "Immunoblot of nPKC isoform abundance in cardiomyocytes", "details": "24 hr stimulation", "experimental": "rPMT selectively activates nPKC isoforms. Cardiomyocyte cultures were incubated in culture medium without or with NE (10 μM), rPMT (400 ng/ml) or PMA (100 nM) for 24 hr (Panels A and C) or 5 min (Panel B). Soluble extracts were prepared and separated by SDS-PAGE followed by immunodetection of total PKC isoform abundance with antibodies that are specific for the individual PKC isoforms (Panel A), or phosphorylated forms of PKC (largely PKCε) with a pan-phospho-PKC antibody (Panels B and C), as described in Methods below. GF109203 was included at 5 μM 30 min prior to stimulation as indicated.\nas §1, §2"}, "ANF mRNA": {"tested_on": "ANF mRNA", "test": "Northern blot analysis of ANF mRNA in cardiomyocytes", "details": "rPMT 400 ng/ml or NE 10 μM, 48 hr, serum-free", "experimental": "rPMT mimics the effect of norepinephrine to promote cardiomyocyte hypertrophy. Cardiomyocytes were cultured in serum-free medium without or with rPMT (400 ng/ml) or norepinephrine (NE, 10 μM) for 48 hr. Cardiomyocytes were fixed, permeabilized, and stained with monoclonal anti-α-actinin sarcomeric (Panel A, magnification×100) or subjected to Northern blot analysis for measurements of steady-state ANF mRNA expression (Panel B). Effects of rPMT (black bars) and NE (gray bars) vs. vehicle (white bars) on sarcomeric organization (Panel C), cell size (Panel D), and protein synthesis (Panel E) are illustrated (n=3 for each).\nTotal RNA from neonatal rat cardiomyocytes were isolated by using a Qiagen kit according to manufacturer's instructions. A rat ANF cDNA probe (˜600 bp) was labeled with [^32P]dCTP. 10 μ/g of total RNA was separated on a 1% agarose gel and transferred to a nylon membrane (Amersham). Prehybridization and hybridization were performed according to standard methods. Normalization of signals was performed with a glyceraldehyde-3-phosphate dehydrogenase probe. Signals were detected by Phosphorimage analysis."}, "AKT": {"tested_on": "AKT", "test": "Phospho-AKT and total AKT Western blot in cardiomyocytes", "experimental": "rPMT decreases basal AKT phosphorylation and prevents its phosphorylation by EGF. Neonatal rat cardiomyocytes were treated with rPMT (400 ng/ml) for 24 hr (Panel A), 48 hr (Panel B) or with EGF (50 ng/ml) for 5 min. Cell lysates were subjected to SDS-PAGE followed by Western blotting with antibodies that recognize the phosphorylated form or total AKT. Data are from representative gels, with similar results obtained in 3 separate experiments.\nPanel A: Cells were treated with norepinephrine (NE, 10 μM) or PMA (100 nM) for 5 min without or with GF109203 (5 μM).\nPanel B: Cells were treated with rPMT (400 ng/ml), NE (10 μM) or PMA (100 nM) for 24 hr without or with Go6983 (5 μM). […] Cell lysates were subjected to SDS-PAGE followed by Western blotting using a specific anti-phospho-AKT antibody. Data are from representative gels, with similar results obtained in 3 separate culture preparations.\nSpecific immunoreactivity for individual PKC isoforms was quantified according to methods described previously. For assays of MAPKs and AKT, cells were exposed to test agents as indicated in individual experimental protocols, washed three times with ice-cold calcium/magnesium-free Dulbecco's PBS (pH 7.1), scraped into ice-cold extraction buffer [20 mM β-glycerophosphate pH 7.5, 20 mM sodium fluoride, 2 mM EDTA, 0.2 mM sodium vanadate, 10 μg/ml aprotinin, 25 μg/ml leupeptin, 50 μg/ml PMSF, and 0.3% (v/v) β-mercaptoethanol], lysed by sonication, and centrifuged at 10,000 g for 10 min at 4° C. The supernatant was diluted in SDS-PAGE sample buffer, boiled for 5 min, and stored at −70° C. Western blot analysis was performed with antibodies that are selective for the phosphorylated (activated) forms of ERK1/2, p38-MAPK, JNK, AKT, and pan-PKC according to manufacturer's instructions. For each panel in each Figure, the results are from a single gel exposed for a uniform duration. Bands were detected by enhanced chemiluminescence and blots were quantified by laser scanning densitometry."}}, "data": [{"molecule": "B1", "values": [{"measurement": "toxin concentration giving maximal activation of inositol phosphate accumulation", "setting": "PLC; at 24 hr, batches vary", "result": 400, "unit": "ng/mL"}, {"measurement": "inositol phosphate accumulation", "setting": "PLC; cardiomyocytes", "result": "promotes inositol phosphate accumulation"}, {"measurement": "time at which the inositol phosphate response is detectable", "setting": "PLC; cardiomyocytes, 400 ng/ml", "result": 1, "unit": "h"}, {"measurement": "time at which the inositol phosphate response is maximal", "setting": "PLC; cardiomyocytes, 400 ng/ml", "result": 48, "unit": "h"}, {"measurement": "partitioning of PKC isoforms between soluble and particulate fractions", "setting": "PKC isoforms", "result": "does not detectably alter"}, {"measurement": "abundance of PKC-δ and PKC-ε in the particulate fraction", "setting": "PKCδ and PKCε", "result": "remains relatively preserved"}, {"measurement": "abundance of PKCδ and PKCε in the soluble fraction", "setting": "PKCδ and PKCε", "result": "significantly reduce"}, {"measurement": "ANF mRNA expression", "setting": "ANF mRNA", "result": "induce ANF mRNA expression"}, {"measurement": "total AKT immunoreactivity, treated vs control cultures", "setting": "AKT", "result": "similar"}, {"measurement": "basal AKT phosphorylation after 24 hr treatment", "setting": "AKT; 24 hr, relative to control cultures", "result": "reduced basal AKT phosphorylation"}, {"measurement": "effect on AKT activation by EGF", "setting": "AKT; rPMT-treated cultures", "result": "blunted"}]}]}
